Measured values as given in PMC9774438 (2022).

Legend:
Hm-AMP8 [1] = target: T1, Hm-AMP8 (synthetic construct); assay: Amplex Red peroxidase activity assay (varying H2O2, uncompetitive inhibition)
T1 chain: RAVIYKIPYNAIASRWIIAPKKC

pept_1545 [2] = target: T2, pept_1545 (synthetic construct); assay: as above
T2 chain: FLIGKAIKRKFCLRSVWNA

Hm-AMP8 [3] = target: T1, Hm-AMP8; assay: Amplex Red peroxidase activity assay (varying Amplex Red, mixed inhibition)
pept_1545 [4] = target: T2, pept_1545; assay: as above
Hm-AMP8 [5] = target: T1, Hm-AMP8; assay: Celestine Blue B chlorinating activity assay (varying Cl-, uncompetitive inhibition)
Hm-AMP8 [6] = target: T1, Hm-AMP8; assay: Celestine Blue B chlorinating activity assay (varying H2O2, uncompetitive inhibition)
pept_1545 [7] = target: T2, pept_1545; assay: as above
pept_1545 [8] = target: T2, pept_1545; assay: Celestine Blue B chlorinating activity assay (varying Cl-, competitive inhibition)

Ki (Hm-AMP8 [1]): 1.79 µM
Ki (pept_1545 [2]): 52.8 µM
Ki (Hm-AMP8 [3]): 1.1 µM
Ki (pept_1545 [4]): 48.3 µM
Ki (Hm-AMP8 [5]): 0.42 µM
Ki (Hm-AMP8 [6]): 0.28 µM
Ki (pept_1545 [7]): 10.8 µM
Ki (pept_1545 [8]): 19.5 µM
B1: Myeloperoxidase (protein)
chain: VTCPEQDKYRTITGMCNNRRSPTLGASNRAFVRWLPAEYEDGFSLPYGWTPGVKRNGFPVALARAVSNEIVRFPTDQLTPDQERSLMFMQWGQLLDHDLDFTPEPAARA
